Source: the supplement of paper PMC5998384

Legend:
HeLa Kyoto [1] = test: thermal stability score vs G1/S (z-score of summed log2 fold changes over temperatures); higher = more thermally stable than in G1/S
HeLa Kyoto [2] = test: solubility in G1/S (NP-40 vs SDS abundance) (log2 ratio); higher = more soluble; conditions: cell cycle stage: G1/S
HeLa Kyoto [3] = test: melting temperature (median over replicates), in situ; higher = more thermally stable
HeLa Kyoto [4] = test: solubility change mitosis vs G1/S (difference of NP-40 vs SDS log2 ratios) (log2 ratio difference); higher = more soluble in mitosis
[5] = cell cycle stage: early G1 (4.5 h after nocodazole release)
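Wherever melting temperature (median over replicates), in situ is given: HeLa Kyoto cells synchronized by double thymidine or nocodazole block, proteins quantified by TMT10plex mass spectrometry, three independent biological replicates.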
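Wherever solubility change mitosis vs G1/S (difference of NP-40 vs SDS log2 ratios) is given: synchronized HeLa Kyoto cells (double thymidine block for G1/S, nocodazole release for mitosis), protein amounts in NP-40 versus SDS lysates quantified by mass spectrometry, three biological replicates.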
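Wherever solubility in G1/S (NP-40 vs SDS abundance) is given: HeLa Kyoto cells arrested at G1/S by double thymidine block, proteins quantified by TMT10plex mass spectrometry in mild NP-40 versus SDS extracts, three biological replicates.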
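Wherever thermal stability score vs G1/S (z-score of summed log2 fold changes over temperatures) is given: synchronized HeLa Kyoto cells, proteins quantified by TMT10plex mass spectrometry, three biological replicates, mitosis taken 0.5 h after nocodazole release, G1/S directly after double thymidine block.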

Row | Sequence | thermal stability score (HeLa Kyoto [1]; [5]) | thermal stability score (HeLa Kyoto [1]; cell cycle stage: mitosis) | solubility in G1/S (log2) (HeLa Kyoto [2]) | melting temperature (HeLa Kyoto [3]; cell cycle stage: G1/S) [°C] | melting temperature (HeLa Kyoto [3]; cell cycle stage: mitosis) [°C] | solubility change mitosis (log2) (HeLa Kyoto [4])
1 | MEEEDESRGKTEESGEDRGDGPPDRDPTLSPSAFILRAIQQAVGSSLQGDLPNDKDGSRCHGLRWRRCRSPRSEPRSQESGGTDTATVLDMATDSFLAGLVSVLDPPDTWVPSRLDLRPGESEDMLELVAEVRIGDRDPIPLPVPSLLPRLRAWRTGKTVSPQSNSSRPTCARHLTLGTGDGGPAPPPAPSSASSSPSPSPSSSSPSPPPPPPPPAPPAPPAPRFDIYDPFHPTDEAYSPPPAPEQKYDPFEPTGSNPSSSAGTPSPEEEEEEEEEEEEEEEDEEEEEGLSQSISRISETLAGIYDDNSLSQDFPGDESPRPDAQPTQPTPAPGTPPQVDSTRADGAMRRRVFVVGTEAEACREGKVSVEVVTAGGAALPPPLLPPGDSEIEEGEIVQPEEEPRLALSLFRPGGRAARPTPAASATPTAQPLPQPPAPRAPEGDDFLSLHAESDGEGALQVDLGEPAPAPPAADSRWGGLDLRRKILTQRRERYRQRSPSPAPAPAPAAAAGPPTRKKSRRERKRSGEAKEAASSSSGTQPAPPAPASPWDSKKHRSRDRKPGSHASSSARRRSRSRSRSRSTRRRSRSTDRRRGGSRRSRSREKRRRRRRSASPPPATSSSSSSRRERHRGKHRDGGGSKKKKKRSRSRGEKRSGDGSEKAPAPAPPPSGSTSCGDRDSRRRGAVPPSIQDLTDHDLFAIKRTITVGRLDKSDPRGPSPAPASSPKREVLYDSEGLSGEERGGKSSQKDRRRSGAASSSSSSREKGSRRKALDGGDRDRDRDRDRDRDRSSKKARPPKESAPSSGPPPKPPVSSGSGSSSSSSSCSSRKVKLQSKVAVLIREGVSSTTPAKDAASAGLGSIGVKFSRDRESRSPFLKPDERAPTEMAKAAPGSTKPKKTKVKAKAGAKKTKGTKGKTKPSKTRKKVRSGGGSGGSGGQVSLKKSKADSCSQAAGTKGAEETSWSGEERAAKVPSTPPPKAAPPPPALTPDSQTVDSSCKTPEVSFLPEEATEEAGVRGGAEEEEEEEEEEEEEEEEEEQQPATTTATSTAAAAPSTAPSAGSTAGDSGAEDGPASRVSQLPTLPPPMPWNLPAGVDCTTSGVLALTALLFKMEEANLASRAKAQELIQATNQILSHRKPPSSLGMTPAPVPTSLGLPPGPSSYLLPGSLPLGGCGSTPPTPTGLAATSDKREGSSSSEGRGDTDKYLKKLHTQERAVEEVKLAIKPYYQKKDITKEEYKDILRKAVHKICHSKSGEINPVKVSNLVRAYVQRYRYFRKHGRKPGDPPGPPRPPKEPGPPDKGGPGLPLPPL [SCAF1] | -0.0585 | 1.29 | -1.69 | 49.5 | 50.2 | 1.41
2 | MEEHSYIQKELDLQNGSLEEDSVVHSVENDSQNMMESLSPKKYSSSLRFKANGDYSGSYLTLSQPVPAKRSPSPLGTSVRSSPSLAKIQGSKQFSYDGTDKNIPMKPPTPLLNTTSSLSGYPLGRADFDHYTGRDSERALRLSEKPPYSKYSSRHKSHDNVYSLGGLEGRKASGSLLAMWNGSSLSDAGPPPISRSGAASMPSSPKQARKMSIQDSLALQPKLTRHKELASENINLRTRKYSSSSLSHMGAYSRSLPRLYRATENQLTPLSLPPRNSLGNSKRTKLGEKDLPHSVIDNDNYLNFSSLSSGALPYKTSASEGNPYVSSTLSVPASPRVARKMLLASTSSCASDDFDQASYVGTNPSHSLLAGESDRVFATRRNFSCGSVEFDEADLESLRQASGTPQPALRERKSSISSISGRDDLMDYHRRQREERLREQEMERLERQRLETILSLCAEYTKPDSRLSTGTTVEDVQKINKELEKLQLSDEESVFEEALMSPDTRYRCHRKDSLPDADLASCGSLSQSSASFFTPRSTRNDELLSDLTRTPPPPSSTFPKASSESSYLSILPKTPEGISEEQRSQELAAMEETRIVILNNLEELKQKIKDINDQMDESFRELDMECALLDGEQKSETTELMKEKEILDHLNRKIAELEKNIVGEKTKEKVKLDAEREKLERLQELYSEQKTQLDNCPESMREQLQQQLKRDADLLDVESKHFEDLEFQQLEHESRLDEEKENLTQQLLREVAEYQRNIVSRKEKISALKKQANHIVQQAQREQDHFVKEKNNLIMMLQREKENLCNLEKKYSSLSGGKGFPVNPNTLKEGYISVNEINEPCGNSTNLSPSTQFPADADAVATEPATAVLASQPQSKEHFRSLEERKKQHKEGLYLSDTLPRKKTTSSISPHFSSATMGRSITPKAHLPLGQSNSCGSVLPPSLAAMAKDSESRRMLRGYNHQQMSEGHRQKSEFYNRTASESNVYLNSFHYPDHSYKDQAFDTLSLDSSDSMETSISACSPDNISSASTSNIARIEEMERLLKQAHAEKTRLLESREREMEAKKRALEEEKRRREILEKRLQEETSQRQKLIEKEVKIRERQRAQARPLTRYLPVRKEDFDLRSHVETAGHNIDTCYHVSITEKTCRGFLIKMGGKIKTWKKRWFVFDRNKRTFSYYADKHETKLKGVIYFQAIEEVYYDHLKNANKSPNPLLTFSVKTHDRIYYMVAPSPEAMRIWMDVIVTGAEGYTHFLL [PHLDB2] | -0.165 | 1.44 | -0.28 | 48.9 | 49.1 | 0.164
3 | MEELSADEIRRRRLARLAGGQTSQPTTPLTSPQRENPPGPPIAASAPGPSQSLGLNVHNMTPATSPIGASGVAHRSQSSEGVSSLSSSPSNSLETQSQSLSRSQSMDIDGVSCEKSMSQVDVDSGIENMEVDENDRREKRSLSDKEPSSGPEVSEEQALQLVCKIFRVSWKDRDRDVIFLSSLSAQFKQNPKEVFSDFKDLIGQILMEVLMMSTQTRDENPFASLTATSQPIAAAARSPDRNLLLNTGSNPGTSPMFCSVASFGASSLSSLYESSPAPTPSFWSSVPVMGPSLASPSRAASQLAVPSTPLSPHSAASGTAAGSQPSSPRYRPYTVTHPWASSGVSILSSSPSPPALASSPQAVPASSSRQRPSSTGPPLPPASPSATSRRPSSLRISPSLGASGGASNWDSYSDHFTIETCKETDMLNYLIECFDRVGIEEKKAPKMCSQPAVSQLLSNIRSQCISHTALVLQGSLTQPRSLQQPSFLVPYMLCRNLPYGFIQELVRTTHQDEEVFKQIFIPILQGLALAAKECSLDSDYFKYPLMALGELCETKFGKTHPVCNLVASLRLWLPKSLSPGCGRELQRLSYLGAFFSFSVFAEDDVKVVEKYFSGPAITLENTRVVSQSLQHYLELGRQELFKILHSILLNGETREAALSYMAAVVNANMKKAQMQTDDRLVSTDGFMLNFLWVLQQLSTKIKLETVDPTYIFHPRCRITLPNDETRVNATMEDVNDWLTELYGDQPPFSEPKFPTECFFLTLHAHHLSILPSCRRYIRRLRAIRELNRTVEDLKNNESQWKDSPLATRHREMLKRCKTQLKKLVRCKACADAGLLDESFLRRCLNFYGLLIQLLLRILDPAYPDITLPLNSDVPKVFAALPEFYVEDVAEFLFFIVQYSPQALYEPCTQDIVMFLVVMLCNQNYIRNPYLVAKLVEVMFMTNPAVQPRTQKFFEMIENHPLSTKLLVPSLMKFYTDVEHTGATSEFYDKFTIRYHISTIFKSLWQNIAHHGTFMEEFNSGKQFVRYINMLINDTTFLLDESLESLKRIHEVQEEMKNKEQWDQLPRDQQQARQSQLAQDERVSRSYLALATETVDMFHILTKQVQKPFLRPELGPRLAAMLNFNLQQLCGPKCRDLKVENPEKYGFEPKKLLDQLTDIYLQLDCARFAKAIADDQRSYSKELFEEVISKMRKAGIKSTIAIEKFKLLAEKVEEIVAKNARAEIDYSDAPDEFRDPLMDTLMTDPVRLPSGTIMDRSIILRHLLNSPTDPFNRQTLTESMLEPVPELKEQIQAWMREKQNSDH [UBE4B] | 1.2 | 2.15 | -0.0721 | 51.3 | 51.8 | -0.0982
4 | MEESGYESVLCVKPDVHVYRIPPRATNRGYRAAEWQLDQPSWSGRLRITAKGQMAYIKLEDRTSGELFAQAPVDQFPGTAVESVTDSSRYFVIRIEDGNGRRAFIGIGFGDRGDAFDFNVALQDHFKWVKQQCEFAKQAQNPDQGPKLDLGFKEGQTIKLNIANMKKKEGAAGNPRVRPASTGGLSLLPPPPGGKTSTLIPPPGEQLAVGGSLVQPAVAPSSGGAPVPWPQPNPATADIWGDFTKSTGSTSSQTQPGTGWVQF [NECAP2] | -0.264 | -1.02 | 0.173 | 52.6 | 52 | -0.251
5 | MEFAAENEGKSGGGLHSVAEGVRLSPEPGREGVRDLAGAEEFGGGEEGTGLTGIKEIGDGEEGSGQRPEEIPMDLTVVKQEIIDWPGTEGRLAGQWVEQEVEDRPEVKDENAGVLEVKQETDSSLVVKEAKVGEPEVKEEKVKEEVMDWSEVKEEKDNLEIKQEEKFVGQCIKEELMHGECVKEEKDFLKKEIVDDTKVKEEPPINHPVGCKRKLAMSRCETCGTEEAKYRCPRCMRYSCSLPCVKKHKAELTCNGVRDKTAYISIQQFTEMNLLSDYRFLEDVARTADHISRDAFLKRPISNKYMYFMKNRARRQGINLKLLPNGFTKRKENSTFFDKKKQQFCWHVKLQFPQSQAEYIEKRVPDDKTINEILKPYIDPEKSDPVIRQRLKAYIRSQTGVQILMKIEYMQQNLVRYYELDPYKSLLDNLRNKVIIEYPTLHVVLKGSNNDMKVLHQVKSESTKNVGNEN [ZNHIT6] | 1.3 | 2.06 | 0.0397 | 48.4 | 50.2 | -0.116
6 | MEFSGRKWRKLRLAGDQRNASYPHCLQFYLQPPSENISLIEFENLAIDRVKLLKSVENLGVSYVKGTEQYQSKLESELRKLKFSYRENLEDEYEPRRRDHISHFILRLAYCQSEELRRWFIQQEMDLLRFRFSILPKDKIQDFLKDSQLQFEAISDEEKTLREQEIVASSPSLSGLKLGFESIYKIPFADALDLFRGRKVYLEDGFAYVPLKDIVAIILNEFRAKLSKALALTARSLPAVQSDERLQPLLNHLSHSYTGQDYSTQGNVGKISLDQIDLLSTKSFPPCMRQLHKALRENHHLRHGGRMQYGLFLKGIGLTLEQALQFWKQEFIKGKMDPDKFDKGYSYNIRHSFGKEGKRTDYTPFSCLKIILSNPPSQGDYHGCPFRHSDPELLKQKLQSYKISPGGISQILDLVKGTHYQVACQKYFEMIHNVDDCGFSLNHPNQFFCESQRILNGGKDIKKEPIQPETPQPKPSVQKTKDASSALASLNSSLEMDMEGLEDYFSEDS [PRIM2] | 0.648 | 2.05 | 0.23 | 48.9 | 49 | -0.116
